Data reported in US20250276077A1 (IMMUNOME, published 2025).

Key:
[1] = target: T1, C-terminally His-tagged hEphA2-FN2 (Thr437-Asn534+His tag) (human, UniProt P29317 437-534); test: SPR Biacore T200, 25 C; mIgG2a captured by anti-mouse Fc, hEphA2-FN2-His analyte; steady-state monovalent KD
T1 construct: also called FN2 domain of hEphA2
Method: Binding of antibodies to the FN2 domain of hEphA2 was measured using the Biacore® T200 SPR system at 25° C. using HBS-EP+ buffer (0.01 M HEPES pH 7.4, 0.15 M NaCl, 3 mM EDTA, 0.005% v/v Surfactant P20). Antibodies in mIgG2a format were captured at levels between 475-715 RU via an anti-mouse Fc antibody immobilized to a CM5 chip. Binding was assessed using a titration of C-terminally His-tagged hEphA2-FN2 (Thr437-Asn534+His tag) associated for 30 s or 75 s at 30 μL/min. Data was double-reference subtracted using both a surface without captured antibody and from injections of HBS-EP+ buffer. The equilibrium response was measured at 4 seconds before the end of association with a window of 5 seconds and fit using the Biacore T200 Evaluation Software 3.1 with the Steady State Affinity Model.

[2] = target: T2, Human EphA2 (ephrin receptor A2) on cells (human, UniProt P29317 25-976); test: cell-based or functional assay
[3] = target: T2, Human EphA2 (ephrin receptor A2) on …; test: flow cytometry, A549 cells
Method: Surface binding of the antibodies to in vitro grown cell lines was assessed by flow cytometry. Tumor cells were detached from their culture plate using Versene and counted. Cells were staining in BSA-containing buffer with primary antibody for 30 minutes at 4° C. with shaking. Following, cells were washed and stained with secondary PE-labeled antibody for 30 minutes at 4° C. with shaking. Before analysis on an Intellicyt iQue3 scanner, cells were counterstained with DAPI. MedFI values from live, single cells was expressed as fold over isotype control.

[4] = target: T3, Human EphA2 (human, UniProt P29317 24-976); test: IHC/IF on frozen human tumor tissue: HNC
T3 construct: Endogenous EphA2 in fresh frozen human tumor tissue sections, not a recombinant protein; also called ephrin receptor A2; hEphA2

[5] = target: T3, Human EphA2; test: IHC/IF on frozen human tumor tissue: NSCLC-Adeno
[6] = target: T3, Human EphA2; test: IHC/IF on frozen human tumor tissue: NSCLC-SQ
[7] = target: T3, Human EphA2; test: IHC/IF on frozen human tumor tissue: RCC-papillary
[8] = target: T3, Human EphA2; test: IHC/IF on frozen human tumor tissue: TNBC
[9] = target: T3, Human EphA2; test: IHC/IF on frozen human tumor tissue: URO
[10] = target: T3, Human EphA2; test: IHC/IF on frozen human tumor tissue: MELA
[11] = target: T3, Human EphA2; test: IHC/IF on frozen human tumor tissue: ANC
[12] = target: T3, Human EphA2; test: IHC/IF on frozen human tumor tissue: RCC-clear cell
[13] = target: T3, Human EphA2; test: IHC/IF on frozen human tumor tissue: PANC
[14] = target: T3, Human EphA2; test: IHC/IF on frozen human tumor tissue: UCEC-papillary
[15] = target: T3, Human EphA2; test: IHC/IF on frozen human tumor tissue: STS
[16] = target: T3, Human EphA2; test: IHC/IF on frozen human tumor tissue: ESO
[17] = target: T3, Human EphA2; test: IHC/IF on frozen human tumor tissue: GAC
[18] = target: T3, Human EphA2; test: IHC/IF on frozen human tumor tissue: Her2+ BRC
[19] = target: T3, Human EphA2; test: IHC/IF on frozen human tumor tissue: OVA
[20] = target: T3, Human EphA2; test: IHC/IF on frozen human tumor tissue: PROC
[21] = target: T3, Human EphA2; test: IHC/IF on frozen human tumor tissue: UCEC-clear cell
[22] = target: T3, Human EphA2; test: IHC/IF on frozen human tumor tissue: UCEC-endometrioid
[23] = target: T3, Human EphA2; test: IHC/IF on frozen human tumor tissue: CRC
[24] = target: T3, Human EphA2; test: IHC/IF on frozen human tumor tissue: ER+ BRC

B1: AB-008873 (mouse IgG2a format) (antibody, V domains shown)
VH: QVQLQQWGAGLLKPSETLSLTCAVYGGSFSDYYWSWIRQPPGKGLEWIGEVNHRGSINYNNYNPSLKSRVTISVDPSKNQFSLKLTSVTAADTAVYYCAKPLRPHCTNGVCYSGDAFDIWGQGTMVTVAS
VL: SYVLTQPPSVSVAPGQTARITCGGNNIGSKNVHWYQQKPGQAPVLVVYDDSDRPSGIPEQFSGSNSGNTATLTISRVEAGDEADYYCQVWDSSSDHLVFGGGTKLTVLG
[1]
  Kd: 2.26 µM

B2: AB-009808 (antibody, mouse IgG2a, V domains shown)
VH: QVQLQQWGAGLLKPSETLSLTCAVYGGSFSDYYWSWIRQPPGKGLEWIGEINHSGSTNYNPSLKSRVTISVDPSKNQFSLKLTSVTAADTAVYYCAKPFRPHCTNGVCYSGDAFDIWGQGTMVTVSS
VL: SYVLTQPPSVSVAPGQTARITCGGNNIGSKNVHWYQQKPGQAPVLVVYDDSDRPSGIPEQFSGSNSGNTATLTISRVEAGDEADYYCQVWDSSSDHLVFGGGTKLTVL
[2]
  ADCC Delta activity (%), A549: 1.31%
  ADCP Delta activity (%), A549: 12.8%
[3]
  Flow Delta activity (MedFI): 29500 MedFI

B3: AB-010361 (mouse IgG2a format) (antibody, V domains shown)
VH: QVQLQQWGAGLLKPSETLSLTCAVYGGSFSGYYWSWIRQPPGKGLEWIGEINHRGSINYNNYNPSLKSRVTISVDTSKNQFSLKLSSVTAADTAVYYCAKPLRPHCTNGVCYSGDAFDIWGQGTMVTVAS
VL: SYVLTQPPSVSVAPGQTARITCGGNNIGSKNVHWYQQKPGQAPVLVVYDDSDRPSGIPEQFSGSNSGNTATLTISRVEAGDEADYYCQVWDSSSDHVVFGGGTKLTVL
notes: tested in mIgG2a format
[1]
  Kd: 1.11 µM

B4: AB-010363 (mouse IgG2a format) (antibody, V domains shown)
VH: QVQLQQWGAGLLKPSETLSLTCAVYGGSFSGYYWSWIRQPPGKGLEWIGEINHRGSINYNNYNPSLKSRVTISVDTSKNQFSLKLSSVTAADTAVYYCAKPLRPHCTNGVCYSGDAFDIWGQGTMVTVAS
VL: SYVLTQPPSVSVAPGQTARITCGGNNIGSKNVHWYQQKPGQAPVLVVYDDSDRPSGIPERFSGSNSGNTATLTISRVEAGDEADYYCQVWDSSSDHVVFGGGTKLTVL
notes: tested in mIgG2a format
[1]
  Kd: 1.31 µM

B5: AB-009812 (antibody, mouse IgG2a, V domains shown)
VH: QVQLQQWGAGLLKPSETLSLTCAVYGGSFSDYYWSWIRQPPGKGLEWIGEVNHSGSINYNNYNPSLKSRVTISVDPSKNQFSLKLTSVTAADTAVYYCAKPLRPHCTNGVCYSGDAFDIWGQGTMVTVAS
VL: SYVLTQPPSVSVAPGQTARITCGGNNIGSKNVHWYQQKPGQAPVLVVYDDSDRPSGIPEQFSGSNSGNTATLTISRVEAGDEADYYCQVWDSSSDHLVFGGGTKLTVL
notes: Made on a mouse IgG2a framework
[4]
  IHC score: 2
[5]
  IHC score: 2
[6]
  IHC score: 1
[7]
  IHC score: 1
[8]
  IHC score: 1
[9]
  IHC score: 1
[10]
  IHC score: 2
[11]
  IHC score: 2
[12]
  IHC score: 1
[13]
  IHC score: 1
[14]
  IHC score: 2
[15]
  IHC score: 2
[16]
  IHC score: 2
[17]
  IHC score: 2
[18]
  IHC score: 2
[19]
  IHC score: 2
[20]
  IHC score: 1
[21]
  IHC score: 1
[22]
  IHC score: 1
[23]
  IHC score: 1
[24]
  IHC score: 1

B6: AB-009807 (antibody, mouse IgG2a, V domains shown)
VH: QVQLQQWGAGLLKPSETLSLTCAVYGGSFNDYYWSWIRQPPGKGLEWIGEVNHSGSTSYNPSLKSRVTISVDTSKNQFSLKLSSVTAADTAVYYCAKPFRPHCTNGVCYSGDAFDIWGQGTMVTVSS
VL: SYVLTQPPSVSVAPGQTARITCGGNNIGSKNVHWYQQKPGQAPALVVYDDSDRPSGIPEQFSGSNSGNTATLTISRVEAGDEADYYCQVWDSSSDHLVFGGGTKLTVL
[2]
  ADCC Delta activity (%), A549: 0.4%
  ADCP Delta activity (%), A549: 11.5%
[3]
  Flow Delta activity (MedFI): 12700 MedFI

B7: AB-009813 (antibody, mouse IgG2a, V domains shown)
VH: QVQLQQWGAGLLKPSETLSLTCAVYGGSFSDYYWSWIRQPPGKGLEWIGEVNHAGSINYNNYNPSLKSRVTISVDPSKNQFSLKLTSVTAADTAVYYCAKPLRPHCTNGVCYSGDAFDIWGQGTMVTVAS
VL: SYVLTQPPSVSVAPGQTARITCGGNNIGSKNVHWYQQKPGQAPVLVVYDDSDRPSGIPEQFSGSNSGNTATLTISRVEAGDEADYYCQVWDSSSDHLVFGGGTKLTVL
notes: as for B5
[4]
  IHC score: 2
[5]
  IHC score: 2
[6]
  IHC score: 1
[7]
  IHC score: 1
[8]
  IHC score: 1
[9]
  IHC score: 1
[10]
  IHC score: 2
[11]
  IHC score: 2
[12]
  IHC score: 1
[13]
  IHC score: 1
[14]
  IHC score: 2
[15]
  IHC score: 2
[16]
  IHC score: 2
[17]
  IHC score: 2
[18]
  IHC score: 1
[19]
  IHC score: 2
[20]
  IHC score: 1
[21]
  IHC score: 2
[22]
  IHC score: 1
[23]
  IHC score: 1
[24]
  IHC score: 1

B8: AB-009805 (antibody, mouse IgG2a, V domains shown)
VH: QVQLQQWGAGLLKPSETLSLTCAVYGGSLSDYHWSWIRQPPGKGLEWIGEINHSGSTNYNPSLKSRVTISVDTSKNQFSLKLSSVSAADTAVYYCAKPFRPHCTNGVCHSGDAFDIWGQGTMATVSS
VL: SYVLTQPPSVSVAPGQTARITCGGNNIGSKNVHWYQQKPGQAPVLVVYDDSDRPSGIPEQFSGSNSGNTATLTISRVEAGDEADYYCQVWDSSSDHLVFGGGTKLTVL
[2]
  ADCC Delta activity (%), A549: 5.06%
  ADCP Delta activity (%), A549: 17.3%
[3]
  Flow Delta activity (MedFI): 75100 MedFI

B9: AB-009806 (antibody, mouse IgG2a, V domains shown)
VH: QVQLQQWGAGLLKPSETLSLTCAVYGGSFSDYYWSWIRQPPGKGLEWIGEINHSGSTNYNPSLKSRVTISVDPSKNQFSLKLTSVTAADTAVYYCAKPFRPHCTNGVCYSGDAFDIWGQGTMVTVSS
VL: SYVLTQPPSVSVAPGQTARITCGGNNIGTKNVHWYQQKPGQAPVLVVYDDSDRPSGIPEQFSGSNSGNTATLTISRVEAGDEADYYCQVWDSSSDHLVFGGGTKLTVL
[2]
  ADCC Delta activity (%), A549: 14.5%
  ADCP Delta activity (%), A549: 17.9%
[3]
  EC50 (read off the curve): ~0.02 µM
  Flow Delta activity (MedFI): 231000 MedFI
